# Experimental data as given in patent publication US6949522B2, “β-2′- or 3′-halonucleosides” (Pharmasset, Inc., priority 2001, dated 2005).
# Substrate: Nc1ncnc2c1ncn2[C@@H]1O[C@H](CO)[C@@H](O)[C@H]1O
# Test: purified protein, by the assay type
# Conditions: other: 25° C., phosphate buffer pH 7.4, substrate of ADA
# Experimental: Assays were performed at 25° C. in phosphate buffer solution (pH 7.4) with substrate concentrations in the range of 15-100 μM and with 0.15 unit of adenosine deaminase (EC.3.5.4.4. from calf intestinal mucosa). The assays were monitored with a UV spectrometer at 265 nm. […] The concentration (ct) of each substrate at a certain time (t) was calculated from the absorbance (At) at that time (t), where it was assumed that the total change of absorbance (A0−A∞) was directly related to the disappearance of the substrate.^35 Initial hydrolysis rates for each substrate concentration were measured manually through graphical curve fitting of the concentration versus time data for reaction of each substrate. From Lineweaver-Burke plot of these initial rates, Vmax (maximum velocity) and KM (Michaelis constant) were obtained for each substrate and kcat was also calculated with 0.15 unit of the enzyme (M.W. 33,000) in 2 mL of buffer solution.
protein,measurement,value
adenosine deaminase (EC.3.5.4.4. from calf intestinal mucosa) (Bos taurus) (protein) MAQTPAFNKPKVELHVHLDGAIKPETILYYGRKRGIALPADTPEELQNIIGMDKPLSLPEFLAKFDYYMPAIAGCREAVKRIAYEFVEMKAKDGVVYVEVRYSPHLLANSKVEPIPWNQAEGDLTPDEVVSLVNQGLQEGERDFGVKVRSILCCMRHQPSWSSEVVELCKKYREQTVVAIDLAGDETIEGSSLFPGHVKAYAEAVKSGVHRTVHAGEVGSANVVKEAVDTLKTERLGHGYHTLEDATLYNRLRQENMHFEVCPWSSYLTGAWKPDTEHPVVRFKNDQVNYSLNTDDPLIFKSTLDTDYQMTKNEMGFTEEEFKRLNINAAKSSFLPEDEKKELLDLLYKAYGMPSPASAEQCL,Km,24.5 µM
same,kcat,76.4 s⁻¹
same,kcat/Km,3.1e+06 M⁻¹ s⁻¹
